Assay results taken from the Immune Epitope Database (IEDB).

Columns and labels:
Test in all cases: IEDB peptide-MHC binding, purified MHC/competitive/radioactivity; ≥ and ≤ were set here for values at or beyond the usual limits of such assays
Conditions in all cases: source organism: Homo sapiens
HLA-A*02:01 = biological target: HLA-A*02:01
HLA-A*24:02 = biological target: HLA-A*24:02
HLA-B*08:01 = biological target: HLA-B*08:01
HLA-A*03:01 = biological target: HLA-A*03:01
HLA-A*11:01 = biological target: HLA-A*11:01
HLA-B*07:02 = biological target: HLA-B*07:02
HLA-A*01:01 = biological target: HLA-A*01:01
HLA-B*51:01 = biological target: HLA-B*51:01
HLA-B*35:01 = biological target: HLA-B*35:01
HLA-B*18:01 = biological target: HLA-B*18:01

IC50 (HLA-A*02:01) [nM] | other results | Sequence
29 | – | ALARGAGTVPL
76 | – | ALGDLFQSI
1310 | – | ALTAVAEEV
1010 | – | ALWGPDPAAA
– | IC50 (HLA-A*24:02): 15100 nM | ALWGPDPAAAF
– | IC50 (HLA-B*08:01): 107 nM | ALWMRLLPL
– | IC50 (HLA-A*24:02): 6180 nM; IC50 (HLA-B*08:01): 33 nM | ALWMRLLPLL
– | IC50 (HLA-A*03:01): 2790 nM; IC50 (HLA-A*11:01): 28300 nM | ALYLVCGER
– | IC50 (HLA-B*07:02): 18300 nM | APVIKARMM
575 | – | AVAANIVLTV
637 | – | ELAEYLYNI
7020 | – | FIQVYEVERA
1.1 | – | FLFAVGFYL
26 | – | FLIVLSVAL
16 | – | FLLSLFSLWL
70 | – | FLQDVMNIL
26 | – | FLWSVFMLI
55 | – | FLWSVFWLI
84 | – | FMTSSWWRAPL
– | IC50 (HLA-B*08:01): 13000 nM | FYTPKTRRE
– | IC50 (HLA-B*08:01): 1380 nM | GERGFFYT
5.8 | – | GLLQVHHSCPL
– | IC50 (HLA-A*01:01): 30300 nM | GSHLVEALY
460 | – | GVFIQVYEV
216 | – | HIAGSLAVV
4060 | – | HLASEKVYAI

IC50 (HLA-A*02:01) [nM] | other results | Sequence
7540 | – | HLCGSHLVEA
4260 | – | HLSYHRLLPL
– | IC50 (HLA-B*07:02): 1250 nM | HPRYFNQLST
2.2 | – | ILAVDGVLSV
11200 | – | ILDKKVEKV
39 | – | ILKDFSILL
478 | – | ILMHCQTTL
675 | – | ILVLASTITI
– | IC50 (HLA-B*07:02): 3860 nM | IPSDLERRIL
9040 | – | IQATVMIIV
97 | – | KLANIQCLCL
1370 | – | KLQVFLIVL
880 | – | KMYAFTLES
11 | – | KVLHELFGMDI
6930 | – | LASEKVYAI
5420 | – | LIFDLGGGT
51 | – | LLDVAPLSL
233 | – | LLGRFELIGI
7840 | – | LLHVHHSCPL
8.1 | – | LLIDLTSFL
10 | – | LLLLDVAPL
444 | – | LLPPLLEHL
35 | – | LLQEYNWEL
3090 | – | LLQVHHSCPL
734 | – | LLSILCIWV
152 | – | LLSLFSLWL

IC50 (HLA-A*02:01) [nM] | other results | Sequence
143 | – | LMFWSPSHSCA
7370 | – | LMGDKSENV
684 | – | LNIDLLWSV
– | IC50 (HLA-B*51:01): 1160 nM; IC50 (HLA-B*07:02): 610 nM; IC50 (HLA-B*35:01): 12300 nM | LPLLALLAL
– | IC50 (HLA-A*03:01): 27400 nM; IC50 (HLA-A*11:01): 27200 nM | LVCGERGFFY
11800 | – | LVEALYLVC
– | IC50 (HLA-A*24:02): 545 nM | LWMRLLPLL
– | IC50 (HLA-A*24:02): 5260 nM | LYLVCGERGF
126 | – | MVWESGCTV
67 | – | NLAQDLATV
764 | – | NLLGRFELI
1.8 | – | NLLGRFELIGI
– | IC50 (HLA-A*11:01): 18300 nM | RFKMFPEVK
581 | – | RLGPVARTRV
– | IC50 (HLA-A*24:02): 10200 nM | RLLPLLALL
5.4 | – | RLLPLWAALPL
124 | – | RLLYPDYQI
1230 | – | RLQREWHTL
8230 | – | RLRPLCCTA
709 | – | RMMEYGTTMV
2150 | – | SHLVEALYLV
1560 | – | SISVLISAL
9.1 | – | SLASLLPHV
472 | – | SLEEEIRFL
51 | – | SLFEGVDFYT
101 | – | SLSPLQAEL

IC50 (HLA-A*02:01) [nM] | other results | Sequence
242 | – | SLTAISTTL
237 | – | SLTTISTTL
209 | – | SLYHVYEVNL
1150 | – | SMCRFSPLTL
631 | – | SMPQGTFPV
25100 | – | STVASRLGPV
9230 | – | STVASWLGPV
1760 | – | SVASLLPHV
4690 | – | TIADFWQMV
2780 | – | TLSSRVCCRT
104 | – | TMHSLTIQM
7700 | – | TVASRLGPV
320 | – | VAANIVLTV
– | IC50 (HLA-B*18:01): 626 nM | VCGERGFFYT
2120 | – | VIVMLTPLV
287 | – | VLHELFGMDI
1140 | – | VLNSVASLL
17200 | – | VLVEGSTRI
2020 | – | VMNILLQYV
2310 | – | VMNILLQYVV
9 | – | VVTGVLVYL
4.2 | – | WLLPLWAAL
3.2 | – | WLLPLWAALPL
– | IC50 (HLA-B*07:02): 2360 nM | WMRLLPLLAL
9510 | – | YIPSCTVVGM
57 | – | YLLLRVLNI
